Values quoted from earlier work, collected in publication PMC8892085.

Target: TLR4 (Homo sapiens) (UniProt O00206)
Sequence (O00206 24-839): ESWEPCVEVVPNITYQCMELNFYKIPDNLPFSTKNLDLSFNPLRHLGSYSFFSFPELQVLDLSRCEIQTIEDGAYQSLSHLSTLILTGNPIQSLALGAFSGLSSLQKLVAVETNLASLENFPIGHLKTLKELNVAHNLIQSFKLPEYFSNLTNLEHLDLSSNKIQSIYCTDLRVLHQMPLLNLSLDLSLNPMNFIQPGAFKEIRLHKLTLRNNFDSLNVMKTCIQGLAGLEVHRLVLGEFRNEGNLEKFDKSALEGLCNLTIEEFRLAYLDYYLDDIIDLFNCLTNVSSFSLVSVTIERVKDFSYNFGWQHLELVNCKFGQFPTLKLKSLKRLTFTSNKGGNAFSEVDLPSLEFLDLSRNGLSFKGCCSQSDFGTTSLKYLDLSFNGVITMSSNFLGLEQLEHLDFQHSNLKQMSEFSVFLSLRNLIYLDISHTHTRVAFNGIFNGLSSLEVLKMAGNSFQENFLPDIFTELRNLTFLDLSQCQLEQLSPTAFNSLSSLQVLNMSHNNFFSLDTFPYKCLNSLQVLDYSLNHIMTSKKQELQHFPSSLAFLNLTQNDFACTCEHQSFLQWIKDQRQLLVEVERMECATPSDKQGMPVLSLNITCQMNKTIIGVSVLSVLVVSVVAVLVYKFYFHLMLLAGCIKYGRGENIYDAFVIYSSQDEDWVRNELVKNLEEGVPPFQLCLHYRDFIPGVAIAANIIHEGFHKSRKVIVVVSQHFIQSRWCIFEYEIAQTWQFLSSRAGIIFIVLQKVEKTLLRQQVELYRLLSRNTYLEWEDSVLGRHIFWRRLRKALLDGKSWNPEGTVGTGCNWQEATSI

Chain of HMGB1 (P09429 whole entry): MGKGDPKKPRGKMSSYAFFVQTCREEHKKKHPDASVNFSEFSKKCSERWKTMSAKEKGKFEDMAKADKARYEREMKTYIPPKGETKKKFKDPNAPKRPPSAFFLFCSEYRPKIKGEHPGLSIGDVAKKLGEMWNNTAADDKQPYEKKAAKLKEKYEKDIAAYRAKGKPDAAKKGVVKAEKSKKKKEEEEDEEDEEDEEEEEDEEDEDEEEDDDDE

HMGB1 (from UniProt P09429)
Kd: 600 nM
